Results from patent US20250236667A1, “ANTIBODIES TO MUTANT CALRETICULIN AND USES THEREOF” (CENTRAL ADELAIDE LOCAL HEALTH NETWORK INC, priority 2021, published 2025).

Assays:
[1] = test system: TF-1 TpoR CALR^del61 and TF-1 TpoR CALR^del52 cells; assay: Western blot of caspase 3 cleavage; type: cell-based, human; conditions: after 4D7 treatment, 20 μg/mL
Method: A. Cell extracts blotted for phospho-STAT5, total STAT5, phospho-ERK, total ERK and actin from TF-1 TpoR cells after incubation with 10 or 20 μg/mL 4D7 or IgG for 4 or 8 hours, in presence of TPO. The last line indicates TPO withdrawal. B. Similar experiment using TPO-independent TF-1 TpoR CALR^del61 cells. C. Similar experiment using TPO-independent TF-1 TpoR CALR^del52 cells at 8 hours. D. Fraction of apoptotic sub-Go population of TF-1 TpoR CALR^del61 cells after 48 hours of 4D7 or IgG treatment (n=3). E. Western blot showing caspase 3 cleavage occurring within 24 hours of TPO withdrawal in TPO dependent TF-1 TpoR cells. An increase in cleaved caspase 3 is observed after 48 hours of treatment with 20 μg/mL 4D7 in TF-1 TpoR CALR^del61 and TF-1 TpoR CALR^del52 cells. F. Western blot of TpoR immunoprecipitation under non-reducing conditions showing associated CALR 50 kDa monomers and 100 kDa dimers (arrowheads) present only in TF-1 TpoR CALR^del61 disrupted by 8 hour treatment with 20 μg/mL 4D7 but not PBS or 20 μg/mL IgG. CALR monomers & dimers are detectable by polyclonal anti-wild type CALR or anti-mutant CALR monoclonal antibodies. Arrowheads, detected mutant CALR protein: asterisk, non-specific bands. G. Proposed model for the mechanism of action of 4D7 on mutant CALR. […]

[2] = test system: ruxolitinib-resistant TF-1 TpoR CALR^del61 cells in NSG mice; assay: Bone marrow engraftment xenograft model, ruxolitinib-resistant cells; type: in vivo; conditions: cells resistant to 100 nM ruxolitinib; 12.5 mg/kg twice weekly from day 7; P=0.0008
Method: All procedures were approved by the South Australian Health and Medical Research Animal Ethics Committee (Protocol SAM21-018). Bone marrow engraftment model: 4-6 week old NSG mice were x-ray irradiated with 150 cGy and 5×10^5 cells (TF-1-TpoR CALR^del61) or 5×10^4 cells (100 nM ruxolitinib resistant TF-1 TpoR CALR^del61) were intravenously injected into mice. Seven days after injection, mice were administered 12.5 mg/kg IgG or 4D7 by intraperitoneal injection twice weekly. Tail vein bleeds were taken at 3 weeks and analysed via flow cytometry to determine human leukaemia content in the peripheral blood. Leukemic cells were PI-, mCD45.1, hCD33+, zsGreen+. Mice were monitored daily and euthanized once clinical symptoms were observed. At the time of euthanasia, cardiac puncture was performed to obtain both peripheral blood and serum for analysis. Additionally, bone marrow from both femurs, spine and spleens were analysed for leukemic content as detailed above. Chloroma model: 4-6 week old NSG mice were anaesthetised by isoflurane inhalation and shaved on the left back/flank and 1×10^7 cells were injected into the mice. Cells were pre-treated with 20 μg/mL IgG or 4D7 for 1 hour prior to injection. Seven days after injection, mice were administered 12.5 mg/kg IgG or 4D7 by intraperitoneal injection twice weekly. Tumour progression was assessed through caliper measurements every 2 days. […]

[3] = test system: primary CD34+ cells from patients with CALR mutant myelofibrosis; assay: TPO-independent megakaryocyte colony formation on collagen-based medium (MegaCult); type: cell-based, human
Source text: Patient samples were collected with informed consent from the South Australian Cancer Research Biobank (SACRB: Adelaide, Australia). Primary CD34+ stem/progenitor cells from peripheral blood samples from patients with JAK2^V617F or CALR mutant myelofibrosis were purified by flow cytometry using CD34-APC antibody, anti-human CD45RA Brilliant Violet 605, anti-CD90 FITC, anti-human CD123-PE, anti-human CD38 PE-Cy7, or with CD34-APC antibody, anti-human CD3 FITC, anti-human CD19-PE (clone H1B19) and anti-human CD14 PE-Cy7.
For megakaryocyte differentiation assays, CD34+ cells derived from cord blood or from patient peripheral blood mononuclear fractions were plated in Megacult (MegaCult™-C Collagen and Medium with Lipids) with added IL-3 and IL-6 (10 ng/ml) in the presence or absence of 50 ng/mL TPO. Cells were plated at an initial density of 1800 cells/well and cultured for 12 days at 37° C. and 5% CO2. […] Culture media was replenished every 3 days and cells were assessed for megakaryocyte differentiation on day 12 using anti-human CD41/61 PE-Cy7 (Clone A2A9/6) and CountBright beads (Thermo Fisher) to enumerate cell numbers. […] Cells were seeded at approximately 100 cells per well and were cultured in the presence of 20 μg/mL 4D7 or control IgG antibody and scored for colony and blast forming units at 12-14 days.

B1: 4D7: rat monoclonal IgG2a antibody against the mutant CALR neoepitope; VH SEQ ID NO: 5, VL SEQ ID NO: 7 (antibody, listed as Rattus rattus, V domains shown)
VH: QVQLQQSGAELAKPGSSVKISCKASGYTFTNYDMSWIKQRPGQALEWIGAINPGNGVTDYNEKFRGKATLTVDKSSSTAFMQLSSLTPEDTAVYHCAREYRDNYGYFDYWGQGVMVTVSS
VL: DIVLTQTPVSLSVTLGDQASISCRSSQSLEYSDGYTYLDWFLQKPGQSPQLLIYEVSSRFSGVPDRFIGRGSGTDFTLKISRVEPEDLGVYYCFQATHDPFTFGSGTKLEIK
[1]
  time at which caspase 3 cleavage occurred: ≤ 24 h
  time at which caspase 3 cleavage peaked: 48 h
[2]
  survival, hazard ratio: 0.26
[3]; 20 μg/mL vs IgG, n=4 patient samples
  decrease of primary TPO-independent megakaryocyte colonies (colony-forming unit-mega): 46%
[3]; patient with a type 2 mutation
  size of megakaryocyte colonies: substantially smaller
